The source of these data is US20230346885A1 (published 2023).

Common to all, as to assay: binding, other
In test [1] the target is T1, PAEP peptide on HLA (human).
T1 peptide: AMATNNISL

Test [2] addresses T2, RLN1 peptide on HLA (human).
T2 peptide: LLLNQFSRA

Test [3] addresses T3, SAGE1 peptide on HLA (human).
T3 peptide: TVLPGLTYL

Test [4] concerns the target T4, SAGE1 peptide on HLA (human).
T4 peptide: VLIQQLEKA

For test [5], the target named is T5, PAGE5 peptide on HLA (human).
T5 peptide: TLPTFDPTKV

Test [6] deals with T6, RLN1 peptide on HLA (human).
T6 peptide: FIANLPPELKA

For test [7], the target named is T7, SAGE1 peptide on HLA (human).
T7 peptide: GLYSTVPHNV

Test [8] has as its target T8, PAGE2 peptide on HLA (human).
T8 peptide: IMPTFDLTKV

Numbering of substitutions follows the chain as printed.

B1: TCR of SEQ ID NOs 461 and 462 (TCR, V domains shown)
Valpha: KQEVTQIPAALSVPEGENLVLNCSFTDSAIYNLQWFRQDPGKGLTSLLLIQSSQREQTSGRLNASLDKSSGRSTLYIAASQPGDSATYLCAVSRSWGKFQFGAGTQVVVTP
Vbeta: NAGVTQTPKFQVLKTGQSMTLQCAQDMNHEYMSWYRQDPGMGLRLIHYSVGAGITDQGEVPNGYNVSRLNKREFSLRLESAAPSQTSVYFCASSLTGGAEYGYTFGSGTRLTVV
Take B1: in test [1], the binding result is listed as “recognises”.

B2: TCR of SEQ ID NOs 531 and 532 (TCR, V domains shown)
Valpha: KQEVTQIPAALSVPEGENLVLNCSFTDSAIYNLQWFRQDPGKGLTSLLLIQSSQREQTSGRLNASLDKSSGRSTLYIAASQPGDSATYLCAVLSNFGNEKLTFGTGTRLTIIP
Vbeta: NAGVTQTPKFRILKIGQSMTLQCTQDMNHNYMYWYRQDPGMGLKLIYYSVGAGITDKGEVPNGYNVSRSTTEDFPLRLLSAAPSQTSVYFCASTREAGLDYGYTFGSGTRLTVV
Consider B2, for which the binding result in test [2] is recorded as “recognises”.

B3: TCR of SEQ ID NOs 539 and 540 (TCR, V domains shown)
Valpha: KQEVTQIPAALSVPEGENLVLNCSFTDSAIYNLQWFRQDPGKGLTSLLLIQSSQREQTSGRLNASLDKSSGRSTLYIAASQPGDSATYLCAVRVTGANNLFFGTGTRLTVIP
Vbeta: NAGVTQTPKFQVLKTGQSMTLQCAQDMNHEYMSWYRQDPGMGLRLIHYSVGAGITDQGEVPNGYNVSRLNKREFSLRLESAAPSQTSVYFCASRPVGGDYTGELFFGEGSRLTVL
As to B3, in test [3], the binding result is “recognises”.

B4: TCR of SEQ ID NOs 463 and 464 (TCR, V domains shown)
Valpha: KQEVTQIPAALSVPEGENLVLNCSFTDSAIYNLQWFRQDPGKGLTSLLLIQSSQREQTSGRLNASLDKSSGRSTLYIAASQPGDSATYLCAVQGGSEKLVFGKGTKLTVNP
Vbeta: NAGVTQTPKFQVLKTGQSMTLQCAQDMNHNSMYWYRQDPGMGLRLIYYSASEGTTDKGEVPNGYNVSRLNKREFSLRLESAAPSQTSVYFCASSEEWSYGYTFGSGTRLTVV
In the case of B4, the binding result in test [1] is “recognises”.

B5: TCR of SEQ ID NOs 547 and 548 (TCR, V domains shown)
Valpha: B4 Valpha with Q93R, G94Q, S96Y, E97S, K98T, V100T, K106M, T108L, N110S
Vbeta: NAGVTQTPKFQVLKTGQSMTLQCAQDMNHNSMYWYRQDPGMGLRLIYYSASEGTTDKGEVPNGYNVSRLNKREFSLRLESAAPSQTSVYFCASSYSYPLAVGELFFGEGSRLTVL
As to B5, the binding result in test [4] is on record as “recognises”.

B6: TCR of SEQ ID NOs 465 and 466 (TCR, V domains shown)
Valpha: KQEVTQIPAALSVPEGENLVLNCSFTDSAIYNLQWFRQDPGKGLTSLLLIQSSQREQTSGRLNASLDKSSGRSTLYIAASQPGDSATYLCAVRSYNQFYFGTGTSLTVIP
Vbeta: NAGVTQTPKFQVLKTGQSMTLQCAQDMNHEYMSWYRQDPGMGLRLIHYSVGAGITDQGEVPNGYNVSRSTTEDFPLRLLSAAPSQTSVYFCASSPGGPSTEAFFGQGTRLTVV
In the case of B6, the binding result in test [1] is reported as “recognises”.

B7: TCR of SEQ ID NOs 493 and 494 (TCR, V domains shown)
Valpha: B2 Valpha with L93G, S94N, N95S, F96G, N98Y, E99Q, L101V, R108K, T110Q, I111V
Vbeta: B6 Vbeta with P95Y, G96S, G97T, P98G, T100Y, A102Q, F103Y, Q106P, V113T
In the case of B7, the binding result in test [5] is “recognises”.

B8: TCR of SEQ ID NOs 495 and 496 (TCR, V domains shown)
Valpha: B2 Valpha with L93G, S94N, N95S, F96G, N98Y, E99Q, L101V, R108K, T110Q, I111V
Vbeta: B6 Vbeta with P95Y, G96S, G97T, P98G, T100Y, E101G, A102Y, F103T, Q106S
As to B8, the binding result in test [5] is on record as “recognises”.

B9: TCR of SEQ ID NOs 517 and 518 (TCR, V domains shown)
Valpha: B6 Valpha with V92P, R93G, S94G, N96Q, Q97K, F98V, Y99T, S105K, T107Q
Vbeta: NAGVTQTPKFQVLKTGQSMTLQCAQDMNHEYMSWYRQDPGMGLRLIHYSVGAGITDQGEVPNGYNVSRSTTEDFPLRLLSAAPSQTSVYFCASRRDPLGGYTFGSGTRLTVV
In the case of B9, in test [6], the binding result is “recognises”.

B10: TCR of SEQ ID NOs 515 and 516 (TCR, V domains shown)
Valpha: B6 Valpha with R93V, Y95N, Q97D, F98M, Y99R, T102A, S105R, I109K
Vbeta: NAGVTQTPKFQVLKTGQSMTLQCAQDMNHEYMSWYRQDPGMGLRLIHYSVGAGITDQGEVPNGYNVSRSTTEDFPLRLLSAAPSQTSVYFCASSLHSPVQGDYGYTFGSGTRLTVV
As to B10, the binding result in test [6] is listed as “recognises”.

B11: TCR of SEQ ID NOs 491 and 492 (TCR, V domains shown)
Valpha: B2 Valpha with L93S, S94N, N95S, F96G, N98Y, E99Q, L101V, R108K, T110Q, I111V
Vbeta: B6 Vbeta with N62D, P95Y, G96S, G97T, P98G, T100Y, A102Q, F103Y, Q106P, V113T
With B11, the binding result in test [5] is listed as “recognises”.

B12: TCR of SEQ ID NOs 535 and 536 (TCR, V domains shown)
Valpha: B6 Valpha with R93G, S94G, N96Q, Q97K, F98V, Y99T, S105K, T107Q
Vbeta: NAGVTQTPKFRVLKTGQSMTLLCAQDMNHNYMYWYRQDPGMGLKLIYYSVGAGITDKGEVPNGYNVSRSTTEDFPLRLELAAPSQTSVYFCASRVDTLGEAFFGQGTRLTVV
As to B12, in test [7], the binding result is listed as “recognises”.

B13: TCR of SEQ ID NOs 537 and 538 (TCR, V domains shown)
Valpha: B6 Valpha with R93G, S94G, N96D, Q97K, F98V, Y99I, T102P, T107S
Vbeta: B9 Vbeta with R95L, D96G, P97Q, L98F, G100Q, Y101A, T102F, S105Q
As for B13, in test [7], the binding result is reported as “recognises”.

B14: TCR of SEQ ID NOs 533 and 534 (TCR, V domains shown)
Valpha: B6 Valpha with R93S, S94G, N96S, Q97T, F98L, Y99T, T102K, S105M, T107L, I109S
Vbeta: B9 Vbeta with R94S, R95E, D96G, L98F, G99S, G100E, Y101A, T102F, S105Q
For the molecule B14, the binding result in test [7] is on record as “recognises”.

B15: TCR of SEQ ID NOs 489 and 490 (TCR, V domains shown)
Valpha: KQEVTQIPAALSVPEGENLVLNCSFTDSAIYNLQWFRQDPGKGLTSLLLIQSSQREQTSGRLNASLDKSSGRSTLYIAASQPGDSATYLCAVRGDYKLSFGAGTTVTVRA
Vbeta: NAGVTQTPKFQVLKTGQSMTLQCAQDMNHNSMYWYRQDPGMGLRLIYYSASEGTTDKGEVPNGYNVSRLNKREFSLRLESAAPSQTSVYFCASSDPLGGLYGYTFGSGTRLTVV
Regarding B15, the binding result in test [8] was “recognises”.

B16: TCR of SEQ ID NOs 541 and 542 (TCR, V domains shown)
Valpha: B15 Valpha with R93D, G94S, D95W, Y96G, S99Q, T105Q, T107V, R109T, A110P
Vbeta: NAGVTQTPKFQVLKTGQSMTLQCAQDMNHEYMSWYRQDPGMGLRLIHYSVGAGITDQGEVPNGYNVSRSTTEDFPLRLLSAAPSQTSVYFCASSSLGLGDYGYTFGSGTRLTVV
As for B16, the binding result in test [3] is listed as “recognises”.

B17: TCR of SEQ ID NOs 545 and 546 (TCR, V domains shown)
Valpha: B15 Valpha with G94D
Vbeta: NAGVTQTPKFRVLKTGQSMTLLCAQDMNHEYMYWYRQDPGMGLRLIHYSVGEGTTAKGEVPDGYNVSRLKKQNFLLGLESAAPSQTSVYFCASSYGPGQIYGYTFGSGTRLTVV
For B17, in test [4], the binding result was “recognises”.

B18: TCR of SEQ ID NOs 543 and 544 (TCR, V domains shown)
Valpha: B15 Valpha with R93G, G94D
Vbeta: B15 Vbeta with D95E, P96G, L97W, L100R, Y101T, G102E, Y103A, T104F, S107Q
On to B18, for which the binding result in test [3] is “recognises”.

B19: TCR of SEQ ID NOs 529 and 530 (TCR, V domains shown)
Valpha: KQEVTQIPAALSVPEGENLVLNCSFTDSAIYNLQWFRQDPGKGLTSLLLIQSSQREQTSGRLNASLDKSSGRSTLYIAASQPGDSATYLCAVRPSTDSWGKLQFGAGTQVVVTP
Vbeta: B9 Vbeta with R94S, R95P, D96T, P97G, L98Y, G99Y
In the case of B19, the binding result in test [2] was “recognises”.

B20: TCR of SEQ ID NOs 519 and 520 (TCR, V domains shown)
Valpha: KQEVTQIPAALSVPEGENLALNCSFTDSAIYNLQWFRQDPGKGLTSLLLIQSSQREQTSGRLNASLDKSSGRSTLYIAASQPGDSATYLCAVNAGGTSYGKLTFGQGTILTVHP
Vbeta: NAGVTQTPKFQVLKTGQSMTLQCAQDMNHNSMYWYRQDPGMGLRLIYYSASEGTTDKGEVPNGYNVSRLNKREFSLRLESAAPSQTSVYFCASSYWREYYEQYFGPGTRLTVT
With B20, the binding result in test [6] is on record as “recognises”.

B21: TCR of SEQ ID NOs 485 and 486 (TCR, V domains shown)
Valpha: KQEVTQIPAALSVPEGENLVLNCSFTDSAIYNLQWFRQDPGKGLTSLLLIQSSQREQTSGRLNASLDKSSGRSTLYIAASQPGDSATYLCAVRLRGSARQLTFGSGTQLTVLP
Vbeta: NAGVTQTPKFRVLKTGQSMTLLCAQDMNHEYMYWYRQDPGMGLRLIHYSVGEGTTAKGEVPDGYNVSRLKKQNFLLGLESAAPSQTSVYFCASSYSIEFTEAFFGQGTRLTVV
In the case of B21, the binding result in test [8] is recorded as “recognises”.

B22: TCR of SEQ ID NOs 487 and 488 (TCR, V domains shown)
Valpha: B21 Valpha with V92L, R93G, L94Y
Vbeta: NAGVTQTPKFRVLKTGQSMTLLCAQDMNHEYMYWYRQDPGMGLRLIHYSVGEGTTAKGEVPDGYNVSRLNKREFSLRLESAAPSQTSVYFCASSVGYPGELFFGEGSRLTVL
As for B22, the binding result in test [8] is listed as “recognises”.

B23: TCR of SEQ ID NOs 527 and 528 (TCR, V domains shown)
Valpha: B21 Valpha with L94P, R95S
Vbeta: B9 Vbeta with R94S, R95Y, D96G, P97V, L98Y, G99T, G100E, Y101A, T102F, S105Q
With B23, the binding result in test [2] is recorded as “recognises”.
